Source: patent publication US20070060518A1 (MANNKIND, published 2007)
Where two headings read alike, the source gives them in different places. Numbered stars: 1 amine (or outer) side, 2 acyl side, 3 side chain; on linkers, the order of the positions; unused ones are H or OH. Square brackets hold non-standard residues; d marks the D form. Ends that are not written are not given here. O‑methyltyrosine = COc1ccc(C[C@H](N[*:1])C(=O)[*:2])cc1; Phg = N[C@H](C(=O)O)c1ccccc1; Nle = CCCC[C@H](N)C(=O)O; Nva = CCC[C@H](N)C(=O)O

Legend:
[1] = molecular target: T1, HLA-A*0201 class I monomer on avidin-coated plates (iTopia Epitope Discovery System) (human); assay: iTopia off-rate assay
T1 construct: Bought kit (Beckman Coulter); also called A0201 restricted MHC Class 1 molecules; MHC monomer
Procedure: (§1) The plates were then incubated on the allele-specific monomer plates at 37° C. The plates were measured at multiple time points (0, 0.5, 1, 1.5, 2, 4, 6 and 8 hrs) for relative fluorescence intensity. The time required for 50% of the peptide to dissociate from the MHC monomer is defined as the T1/2 value (hrs).

[2] = molecular target: T1, HLA-A*0201 class I monomer on …; assay: iTopia affinity and off-rate assays (FIG. 28)
Procedure: (§2) Avidin-coated microtiter plates containing class I monomer loaded with a so-called placeholder peptide were used to evaluate peptide binding, affinity and off-rate. […] Assay buffers, anti-MHC-FITC mAb and beta2-microglobulin and control peptides were also supplied with the kits. Binding Assay:
as §1
(§3) In some cases, the reported values are the average of two determinations.

HLA-A*0201 on T2 cells [3] = molecular target: T2, HLA-A*0201 on T2 cells (human); assay: T2 cell stability assay, flow cytometry
T2 construct: whole, on cells; also called HLA-A2

HLA-A*0201 on T2 cells [4] = molecular target: T2, HLA-A*0201 on T2 cells; assay: T2 cell binding assay, flow cytometry
[5] = molecular target: T1, HLA-A*0201 class I monomer on …; assay: iTopia affinity and off-rate assays (FIG. 19)
Procedure: as §2, §1

[6] = molecular target: T1, HLA-A*0201 class I monomer on …; assay: iTopia assays (FIG. 20)
[7] = molecular target: T1, HLA-A*0201 class I monomer on …; assay: iTopia affinity assay (FIG. 26)
Source text: as §2, §3

[8] = molecular target: T1, HLA-A*0201 class I monomer on …; assay: iTopia binding and affinity assays (FIG. 26)
Source text: as §2
(§4) This assay measures the ability of individual peptides to bind HLA molecules under standardized optimal binding conditions. Monomer-coated plates were first stripped, releasing the placeholder peptide and leaving only the MHC heavy chain bound to the plate. Test peptides were then introduced under optimal folding conditions, along with the anti-MHC-FITC mAb. […] The anti-MHC-FITC mAb binds preferentially to a refolded MHC complex. Therefore, the fluorescence intensity resulting from each peptide was related to the peptide's ability to form complex with MHC molecule. Each peptide's binding was evaluated relative to the positive control peptide provided in the kit, and the results were expressed “% binding”.

[9] = molecular target: T1, HLA-A*0201 class I monomer on …; assay: iTopia binding assay (FIG. 26)
Source text: as §2, §4

[10] = molecular target: T1, HLA-A*0201 class I monomer on …; assay: iTopia assays (FIG. 21)
HLA-A*0201 on T2 cells [11] = molecular target: T2, HLA-A*0201 on T2 cells; assay: T2 cell stability assay, flow cytometry; remark: listed apart in the source
HLA-A*0201 on T2 cells [12] = molecular target: T2, HLA-A*0201 on T2 cells; assay: T2 cell binding assay, flow cytometry; remark: listed apart in the source
HLA-A*0201 on T2 cells [13] = molecular target: T2, HLA-A*0201 on T2 cells; assay: T2 cell binding assay, flow cytometry; remark: listed apart in the source

B1: Prame 425-433 (L426Nva, L433Nle) (peptide)
peptide: S[Nva]LQHLIG[Nle]
notes: also called S{Nva}LQHLIG{Nle}; L426Nva L433Nle analog
[1]
  Half-Life (T1/2): 16.9 h

## T[Nva]LQHLIG[Nle] (also called T{Nva}LQHLIG{Nle}) [PRAME425-433 S425T L426Nva L433Nle analog]
[2]
  binding result: binds

## [Phg]ASEKIFYV [SSX2 41-49 (K41(Phg))]
HLA-A*0201 on T2 cells [3]
  Stability (T1/2): > 24 h
HLA-A*0201 on T2 cells [4]
  EC50: 5.83 µM
  Relative affinity (1/RA): 2.5

## GLPSIPVHPX (norvaline (Nva) at PΩ (P10), also called I297Nva) [PSMA288-297 analog with Nva at PΩ]
[5]
  binding result: binds

## GLWSIPVHP[Nva] [PSMA288-297 analog with Trp at P3 and Nva at PΩ]
[6]
  binding result: binds

## S[Nva]LMWITQV (also called SNvaLMWITQV) [NY-ESO-1 157-165 (L158Nva, C165V)]
[1]
  Half-Life (T1/2): 17 h

## GMPSIPVHPI [PSMA288-297 analog with Met at P2]
[5]
  binding result: binds

## GLWSIPVHPV [PSMA288-297 analog with Trp at P3 and Val at PΩ]
[6]
  binding result: binds

## SLLQHLIGA [PRAME425-433 analog with Ala at PΩ]
[7]
  fold change of ED50 against the native peptide: > 10 fold

## SMLQHLIGL [PRAME425-433 analog with Met at P2]
[8]
  binding result: binds

## KLLQHLIGL (also called Lys P1 analog) [PRAME425-433 analog with Lys at P1]
[7]
  fold change of ED50 against the native peptide: ~6 fold

## TLLQHLIGL [PRAME425-433 analog with Thr at P1]
[8]
  binding result: binds

## YLLQHLIGL [PRAME425-433 analog with Tyr at P1]
[8]
  binding result: binds

## SILQHLIGL [PRAME425-433 analog with Ile at P2]
[8]
  binding result: binds

## SLLQHLIGI [PRAME425-433 analog with Ile at PΩ]
[9]
  binding result: binds

## SLLQHLIGV [PRAME425-433 analog with Val at PΩ]
[9]
  binding result: binds

## SVLQHLIGL [PRAME425-433 analog with Val at P2]
[9]
  binding result: binds

## G[Nva]WSIPVHPV [PSMA288-297 Nva/W/V analog (Nva at P2, Trp at P3, Val at PΩ)]
[10]
  binding result: binds

## YMDGTMSQV [Tyrosinase 369-377]
[1]
  Half-Life (T1/2): 14.4 h

## [O‑methyltyrosine]ASEKIFYV [SSX2 41-49 (K41(O-methyl Tyr))]
HLA-A*0201 on T2 cells [3]
  Stability (T1/2): 20 h
HLA-A*0201 on T2 cells [4]
  EC50: 19.5 µM
  Relative affinity (1/RA): 0.8

## YMDGTMSQX (norvaline (Nva) at position 377 (P9)) [Tyrosinase 369-377 (V377Nva)]
[1]
  Half-Life (T1/2): 14.7 h

## KISEKIFYV [SSX2 41-49 (A42I)]
HLA-A*0201 on T2 cells [11]
  Stability (T1/2): 22.5 h
HLA-A*0201 on T2 cells [12]
  EC50: 8.8 µM
  Relative affinity (1/RA): 1.7

## KVSEKIFYI [SSX2 41-49 (A42V, V49I)]
HLA-A*0201 on T2 cells [13]
  Relative affinity (1/RA): 1.1

## KASEKIFYI [SSX2 41-49 (V49I)]
HLA-A*0201 on T2 cells [13]
  Relative affinity (1/RA): 1

## KLSEKIFYI [SSX2 41-49 (A42L, V49I)]
HLA-A*0201 on T2 cells [13]
  Relative affinity (1/RA): 2.6

## KMSEKIFYV [SSX2 41-49 (A42M)]
HLA-A*0201 on T2 cells [11]
  Stability (T1/2): 22.5 h
HLA-A*0201 on T2 cells [12]
  EC50: 8.8 µM
  Relative affinity (1/RA): 1.7
